The source of these data is the nanobody polyreactivity screen of Harvey et al. (2022).

The series in a line: yeast display, Sf9 membrane polyspecificity reagent, FACS + sequencing; frameworks hold sequencing errors. Summed up: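 Nanobodies came from a synthetic yeast display library in Saccharomyces cerevisiae BJ5465, induced with galactose for 36–48 hours and stained for 1 hour at 4 °C with 10% biotinylated, detergent-solubilized Sf9 membrane reagent. Cells were enriched on streptavidin microbeads and then FACS-sorted, with low and high (top ~1%) gates set on anti-HA fluorescence for expression and streptavidin fluorescence for reagent binding. Each polyreactivity label reflects the gate a clone came from. Genes were amplified by colony PCR, sequenced by MiSeq 2 × 250 and filtered by CDR length.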
With “QVQLVESGGGLVQAGGSLRLSCAASGRIFAHNAMGWYRQAPGKERELVAAINWSGGSTYYADSVTWRFTISRDNAKNTVYLQMNSLKPEDTAVYYCNNRYIHRSRAGYDYWGQGTQVTVSS”, the “polyreactivity (PSR sort gate)” value is reported as “low polyreactivity”.

Regarding “QVQLVESGGGLVQAGGSLRLSCAASGRIFPGNTMGWYRQAPGKERELVAAISSSTGNTYYADSVKGRFTISRDNAKNTVYLQMNSLKPEDTAVYYCAARTRQISIVGYNYWGQGTQVTVSS”, the “polyreactivity (PSR sort gate)” value is on record as “high polyreactivity”.

For “QVQLVESGGGLVQAGGSLRLSCAASGNTFDYYTMGWYRQAPGKERELVAAISWNGGSTYYADSVKGRFTISRDNAKTTVYLQMNSLKPEDSAVYYCAVLYRSEYDWGQGTQVTVSS”, the “polyreactivity (PSR sort gate)” value is listed as “low polyreactivity”.

For “QVQLVESGGGLVQAGGSLRLSCAASGFTLEYYAMGWYRQAPGKERELVAAITNGASTNYADSVKGRFTISRDNAKNTVYLQMNSLKPEDTAVYYDYWGQGTQVTVSS”, the “polyreactivity (PSR sort gate)” value is “low polyreactivity”.

Take “QVQLVESGGGLVQAGGSLRLSCAASGFTFDRYAMGWYRQAPGKERELVAAISRSGASTYYADSVKGRFTISRDNAKNTVYLQMNSLKPEDTAVDDCAAKQRTKGDYWGQGTQVTVSS”: the “polyreactivity (PSR sort gate)” value is reported as “high polyreactivity”.

“QVQLVESGGGLVQAGGSLRLSCAASGSTFLNYAMGWYRQAPGKERELVAAISGRGGRTYYADSVKGRFTISRDNAKNTVYLQMNSLKPEDTAVYYCARRVRFPGGTFYYWGQGTQVTVSS”: the “polyreactivity (PSR sort gate)” value is listed as “high polyreactivity”.

Take “QVQHVESGGGLVQAGGSLRLSCAASFYVYAMGWYRQAPGKERELVAAITYSGGGTYYADSVKGRFTISRDNAKKTVYLQMYSLKPEDTAVYYCNARATAYGWRGYAGFEFDYWGQGTQVTVSS”: the “polyreactivity (PSR sort gate)” value is “low polyreactivity”.

With “QVQLVESGGGLVQAGGSLRLSCAASGSIISYYAMGWYRQAPGKERELVAAITASGGSTYYADSVKGRFTISRDNAKNTVYLQMNSLKPEDTAVYYCAAGTHTDYGRYYYWGQGTQVTVSS”, the “polyreactivity (PSR sort gate)” value is reported as “low polyreactivity”.

As to “QVQLVESGGGLDQAGGSLRLSCAASGFIFFQYAMGWYRQAPGKERELVAAISGSGVTTYYADSVKGRFTISRDNAKNTVYLQMNSLKPEDTAVYYCAADTPPYYAYWDVSFEYYYWGQGTQVTVSS”, the “polyreactivity (PSR sort gate)” value was “low polyreactivity”.

On to “QVQLVESGRGLVQAGGSLRLSCAASGRIFVYYAMGWYRQAPGKERELVATISSGGSTYYADSVKGRFTISRDNAKNTVYLQMNSLKPEDTAVYYCAADNVNRYLAYYYKGDYWGQGTQVTVSS”, for which the “polyreactivity (PSR sort gate)” value was “low polyreactivity”.

Regarding “QVQLVESGGGLLQAGGSLRLSCASSGRTFKANAMVWYRQAPGKERELVAAISYSGGNTYYADSVKGRFTISRDNANNTVYLQMNSLKPEDTAVYYCARYYYLPVVDMDYWGQGTQVTVSS”, the “polyreactivity (PSR sort gate)” value is given as “high polyreactivity”.

Regarding “QVQLVESGGGLVQAGGSLRLSCAASGRIFRVYTMGWYIQAPGKERELVAAISRGGTTTYADSVKGRFTISRDNAKNTVYLQMNSLKPEYTAVYYCNARGWFRGEFDYWGQGTQVTVSS”, the “polyreactivity (PSR sort gate)” value is reported as “high polyreactivity”.

On to “QVQLVESGGRLVQAGGSLRLSCAASGRIFLNYDMGWYRQAHGKERELVAAITWSTGSTYADSVKGRFTISRDNAKNNVYLKMNSLKPEVTAVYYCAAPWGQTDDRHKGGDYWGQGSQVTVSS”, for which the “polyreactivity (PSR sort gate)” value is on record as “low polyreactivity”.

Turning to “QVQLVESGGGLVQAGGSLRLSCAASGSTFGVYAMGWYRQAPGKDRELVAAISRSGGRTYYADSVKGRFTISRDNAKNSVYLQMNSLKPEDTAVYYCALYGGLGDRFRPRYYWGQGTQVTVSS”, the “polyreactivity (PSR sort gate)” value was “high polyreactivity”.

With “QVQLVESGGGLVQAGGSLRLSCGASGSISKINAMGWYRQARGKERELVAAINTGDSTYYADSVKGRFTISRDNAKNTVYLQRNSLKPEDTAVYYCAAEGSPTGYDYWGLGTQVTVSS”, the “polyreactivity (PSR sort gate)” value was “low polyreactivity”.

For the sequence “QVQLVESGGGLVQAGGSLRLSCAASGGTFTKNPMGWYRQAPGKERELVATITFSDGSTYYADSVKGRFTISRDNAKNTVYLQMNSLKPEDTAVYYCNARRSYFLRYGVNYWGQGTQVTVSS”, the “polyreactivity (PSR sort gate)” value was “low polyreactivity”.
